Assay results as given in US20230002492A1 (SIMCERE SHANGHAI PHARMACEUTICAL, published 2023).

Columns and labels:
[1] = molecular target: T1, recombinant human PD-L1 protein (Sino Biological, Cat. 10084-H05H) (human, UniProt Q9NZQ7 19-239); assay: competitive ELISA: coated human PD-L1 protein, antibody titrated together with human PD-1-His, bound PD-1-His detected with HRP anti-His; panel A experiment (the text prints only the panel B value)
T1 construct: also called PD-L1-mFc; human PD-L1 protein fused with mouse Fc
Protocol: (§1) The recombinant human PD-L1 protein (Sino Biological, Cat. 10084-H05H) was diluted with carbonate buffer and added to a 96-well plate at a final concentration of […]. […] Then HRP-labeled anti-His tag antibody (MBL, Cat. D291-7) was added, and color development was performed with TMB. After termination with 1M sulfuric acid, OD values (dual wavelength 450 nm-630 nm) were read. The competitive binding curve of the test antibody can be drawn by matching the antibody concentration with the OD value to calculate the IC50 value.

[2] = molecular target: T2, PD-L1 on the surface of CHO-PD-L1 cells (UniProt Q9NZQ7 19-290, limits assumed); assay: flow cytometry on CHO-PD-L1 cells, anti-human IgG PE, MFI fold, ng/ml is the unit of the concentration axis
T2 construct: whole, on cells; also called CHO-PD-L1 cells (Nanjing Yongshan Biotechnology); CHO cell line (GenScript, Cat. M00613) stably transfected with PD-L1
Protocol: A gradient concentration of antibodies to be detected (final concentration of antibody: 10000 ng/ml-0.1 ng/ml, 10-foldserial dilution) were incubated with CHO-PD-L1 cells (Nanjing Yongshan Biotechnology Co., Ltd., 10⁵ cells/well) with high expression of PD-L1 on the cell surface at 4° C. ° C. for 30min. After incubation, 1:250 diluted anti-human IgG PE fluorescent antibody (eBioscience, Cat. 12-4998-8) was added, and incubated at 4° C. for 30 min. The fluorescent antibody specifically bound to the Fc fragment of the antibody to be detected. The fluorescent intensity of PE was detected by FACS, and the ability of the antibody to be detected to bind to PD-L1 protein highly expressed on the cell surface was analyzed. […] MFI fold=MFI value of the experimental group/MFI value of the control group without drugs.

[3] = molecular target: T1, recombinant human PD-L1 protein (Sino …); assay: competitive ELISA: PD-L1 coated, antibody titrated against PD-1-His, anti-His-HRP
Protocol: as §1

[4] = molecular target: T3, cynomolgus monkey PD-L1-His protein (Sino Biological, Cat. 90251-CO8H) (cynomolgus monkey, UniProt G7PSE7 19-238); assay: SPR, Biacore T200, antibody captured, PD-L1-His injected, 1:1 model, 25 C
T3 construct: Bought protein; also called cynomolgus monkey PD-L1 recombinant protein
Protocol: (§2) Biacore T200 (GE Healthcare) was used to determine binding affinity of the PD-L1 antibody to the human and cynomolgus monkey PD-L1-His proteins. Anti-human IgG Fc (Genway, Cat. GWB-20A705) was immobilized on CM5 chip (GE Healthcare, Cat. BR-1005-30) at 25° C. Anti-human Fc (Genway, Cat. GWB-20A705) was diluted to […] with Acetate pH5.0 (GE Healthcare, BR-1003-51). The Amine method in the Immobilization method was used to immobilize. Alternatively, a commercially available Protein A (GE Healthcare, Cat. 29127556) chip was used for detection. […] In each cycle, the antibody to be tested was captured on the fixed CM5 chip, then injected with recombinant human PD-L1-His (Novoprotein, Cat. 315) and cynomolgus monkey PD-L1-His protein (Sino Biological, Cat. 90251-CO8H), and finally regenerated with Glycine pH1.5. The mobile phase was HBS-EP+Buffer (GE Healthcare, Cat. BR-1006-69), the flow rate was 30 μL/min, and the binding time was 300 seconds. The regeneration flow rate was 30 μL/min and the time was 30 seconds. Using Biacore T200 evaluation software (version 3.0), a 1:1 binding model was used to analyze the experimental data, fit the equilibrium dissociation constant KD of the antibody and antigen, and determine the binding rate constant Ka and dissociation rate constant Kd.

[5] = molecular target: T4, recombinant human PD-L1-His (Novoprotein, Cat. 315) (human, UniProt Q9NZQ7 19-239); assay: as above
T4 construct: Bought protein; also called human PD-L1 recombinant protein; human PDL1 protein; not shown: His tag
Protocol: as §2

[6] = molecular target: T4, recombinant human PD-L1-His …; assay: SPR, Biacore T200, antibody captured, human PD-L1-His injected, 1:1 model, 25 C
Protocol: as §2

T4 sequence (Q9NZQ7 19-239 limits assumed): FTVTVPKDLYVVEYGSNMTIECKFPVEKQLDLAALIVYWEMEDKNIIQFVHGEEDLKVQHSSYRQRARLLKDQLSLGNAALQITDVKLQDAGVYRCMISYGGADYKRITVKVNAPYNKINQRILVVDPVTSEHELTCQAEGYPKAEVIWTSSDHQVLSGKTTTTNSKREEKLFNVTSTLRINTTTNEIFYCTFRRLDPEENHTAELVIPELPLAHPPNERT
T1 sequence (Q9NZQ7 19-239 limits assumed): as above
T3 sequence (G7PSE7 entry or part of it limits assumed): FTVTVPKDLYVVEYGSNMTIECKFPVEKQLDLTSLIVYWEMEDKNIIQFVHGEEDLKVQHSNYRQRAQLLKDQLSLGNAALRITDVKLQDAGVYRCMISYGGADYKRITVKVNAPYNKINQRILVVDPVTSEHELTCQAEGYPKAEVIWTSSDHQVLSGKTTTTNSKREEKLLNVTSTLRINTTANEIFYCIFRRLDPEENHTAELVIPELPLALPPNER
T2 sequence (Q9NZQ7 19-290 limits assumed): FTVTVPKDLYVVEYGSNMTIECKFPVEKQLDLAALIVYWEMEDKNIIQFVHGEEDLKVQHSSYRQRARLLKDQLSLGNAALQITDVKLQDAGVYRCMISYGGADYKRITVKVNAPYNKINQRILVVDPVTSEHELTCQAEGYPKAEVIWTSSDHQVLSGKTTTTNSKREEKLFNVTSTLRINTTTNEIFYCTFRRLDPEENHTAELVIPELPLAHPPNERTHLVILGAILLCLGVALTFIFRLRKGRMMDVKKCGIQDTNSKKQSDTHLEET

- IC50 [1]: 0.14 µg/mL
- EC50 [2]: 0.0235 µg/mL
- IC50 [3]: 0.221 µg/mL
- Kd [4]: 0.375 nM
- Kd [5]: 0.291 nM
- Kd [6]: 0.291 nM
- koff [6]: 0.000233 s⁻¹
- kon [6]: 802000 M⁻¹ s⁻¹
B1: PDL1-156 (antibody, V domains shown)
VH: EVQLQESGPELVKPGASVKISCKASGYTFTDYYMNWVRQSHGKSLEWIGDINPNNGDTSYNQKFKGKATLTVDKSSSTAYMDLRSLTSEDSAVYYCASSVMDYWGQGTTVTVSS
VL: DIVLTQSPALMSASPGEKVTMTCSASSSVNYVYWYQQKPRSSPKPWIYLTFNLASGVPARFSGSGSGTSYSLTISSMEAEDAATYYCQQWSSNPLTFGAGTKLEIK
